Results reported in the supplement of paper PMC10126150.
± gives the standard deviation of the averaged measurements.

system: ATP; experiment: switch fluorescence ratio, 500 uM ATP over buffer (Cy3 cluster intensity, sum of 5 cycles each) (fold (ratio)); higher = stronger signal-on switching upon ATP binding; sequences stand for … in TCGTCGGCAGCGTCAGATGTGTATAAGAGACAGTTTTTTTTTTTTTTTTTTTTTTTTT…TC; details: aptamer strand: ATP DNA aptamer (quencher-CACCTGGGGGAGTATTGCGGAGGAAGG + anchor), 100 nM annealed; ATP concentration: 500 uM
How it was run: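 Cy3-labelled switching-strand clusters on a modified Illumina MiSeq flow-cell were annealed to 100 nM quencher-labelled ATP aptamer, imaged in selection buffer, then imaged after 15 min with 500 uM ATP at 22 °C. Five buffer/ATP cycles ran, with NaOH stripping and re-annealing between them. The fluorescence ratio is summed target-cycle over summed buffer-cycle Cy3 intensity per cluster, averaged per switch-domain sequence. Clusters outside 100-1000 RFU were excluded.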
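Note: ATP exposure 15 min at 22 °C before imaging.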

| Sequence | switch fluorescence ratio |
| --- | --- |
| ACCCCTATTT | 1.1116 ± 0.00045 |
| ACCCGACGAG | 1.03 ± 0.039 |
| ACCCGGATGG | 1.01 ± 0.021 |
| ACCCGGCTTC | 1.024 ± 0.0077 |
| ACCCGGGCTT | 0.995 ± 0.026 |
| ACCCGGGGTT | 0.994 ± 0.013 |
| ACCCGTAATG | 1.75 ± 0.028 |
| ACCCTCGAAT | 1.02 ± 0.011 |
| ACCCTGTTGC | 1.12 ± 0.072 |
| ACCGACCGGG | 1.074 ± 0.005 |
| ACCGCACGGA | 1.55 ± 0.29 |
| ACCGCGGTCG | 0.974 ± 0.049 |
| ACCGGACATG | 1.07 ± 0.034 |
| ACCGGAGGGG | 1.17 ± 0.26 |
| ACCGGAGTTC | 1.23 ± 0.014 |
| ACCGGCACAT | 1.273 ± 0.0092 |
| ACCGGCCAGC | 1.002 ± 0.004 |
| ACCGGCCTGG | 1 ± 0.025 |
| ACCGGGAAAG | 1.062 ± 0.0096 |
| ACCGGGATGG | 0.994 ± 0.024 |
| ACCGGGGGGG | 1 ± 0.035 |
| ACCGGTAAAT | 1.01 ± 0.037 |
| ACCGTAGGGG | 0.973 ± 0.016 |
| ACCGTGAGGC | 1.02 ± 0.088 |
| ACCGTGTGTG | 0.995 ± 0.046 |

| Sequence | switch fluorescence ratio |
| --- | --- |
| ACCGTTTGGT | 0.999 ± 0.038 |
| ACCGTTTTGT | 1.02 ± 0.019 |
| ACCTACGAGT | 1.37 ± 0.044 |
| ACCTAGCGCA | 1.33 ± 0.045 |
| ACCTAGTTTT | 1.011 ± 0.0078 |
| ACCTATTCGT | 1.054 ± 0.0047 |
| ACCTGAATAG | 1.14 ± 0.11 |
| ACCTGGTGGG | 0.984 ± 0.028 |
| ACCTTAGTGC | 1.1 ± 0.048 |
| ACGAAAGGTT | 1.034 ± 0.0089 |
| ACGAAATAGT | 1.183 ± 0.0065 |
| ACGAACGATC | 1.35 ± 0.022 |
| ACGAAGAAGT | 1.012 ± 0.0048 |
| ACGAAGGATA | 1.04 ± 0.014 |
| ACGAAGGTCT | 0.998 ± 0.012 |
| ACGAAGTTAG | 0.998 ± 0.015 |
| ACGACCGTTG | 1.02 ± 0.061 |
| ACGACGGTAG | 1.02 ± 0.029 |
| ACGAGAGGGT | 0.973 ± 0.023 |
| ACGAGGACAG | 1.06 ± 0.0025 |
| ACGAGGGAAA | 2.12 ± 1.6 |
| ACGAGGGTCA | 1.01 ± 0.06 |
| ACGAGGGTGG | 1.065 ± 0.0084 |
| ACGAGGGTTG | 1.01 ± 0.026 |
| ACGAGTAGGC | 0.986 ± 0.021 |

| Sequence | switch fluorescence ratio |
| --- | --- |
| ACGAGTTAGT | 0.9933 ± 0.0045 |
| ACGATCCACG | 1.04 ± 0.045 |
| ACGATCGGCT | 1.06 ± 0.2 |
| ACGATGAGGA | 0.982 ± 0.07 |
| ACGATGTGCT | 0.982 ± 0.015 |
| ACGATTATTC | 1.07 ± 0.039 |
| ACGATTTAAG | 1.03 ± 0.05 |
| ACGCATTATT | 1.62 ± 0.051 |
| ACGCATTCAA | 1.236 ± 0.0039 |
| ACGCATTGGT | 1.188 ± 0.0086 |
| ACGCCCACGT | 1.22 ± 0.038 |
| ACGCCCACTA | 1.38 ± 0.1 |
| ACGCCCTGGC | 1.04 ± 0.045 |
| ACGCGACATT | 1.12 ± 0.039 |
| ACGCGACGG | 1.13 ± 0.018 |
| ACGCGATATG | 1.253 ± 0.01 |
| ACGCGCCGGG | 1.063 ± 0.0039 |
| ACGCGGACAC | 1.22 ± 0.065 |
| ACGCGGGACA | 1.04 ± 0.014 |
| ACGCGGGGGT | 1.07 ± 0.069 |
| ACGCGTCGGC | 1.06 ± 0.013 |
| ACGCTAAATA | 1.26 ± 0.03 |
| ACGCTACATT | 1.39 ± 0.031 |
| ACGCTCCTGG | 1.15 ± 0.034 |
| ACGCTGCCAG | 1.04 ± 0.02 |

| Sequence | switch fluorescence ratio |
| --- | --- |
| ACGCTTAGAC | 1.66 ± 0.24 |
| ACGCTTGTGC | 1.08 ± 0.042 |
| ACGGAACAGC | 1.11 ± 0.13 |
| ACGGAAGGGA | 0.991 ± 0.036 |
| ACGGAAGGGT | 1.04 ± 0.043 |
| ACGGAAGGTT | 1.03 ± 0.043 |
| ACGGAATATT | 1.171 ± 0.0019 |
| ACGGACGGGG | 1.11 ± 0.036 |
| ACGGAGGGCT | 1.02 ± 0.015 |
| ACGGAGTTAC | 1.84 ± 0.18 |
| ACGGCAAGGG | 1.15 ± 0.063 |
| ACGGCACTCG | 1.4 ± 0.1 |
| ACGGCAGAGG | 1.09 ± 0.02 |
| ACGGCATTAA | 1.165 ± 0.0043 |
| ACGGCATTGC | 1.19 ± 0.037 |
| ACGGCCACTG | 1.07 ± 0.019 |
| ACGGCCGGGA | 1.02 ± 0.026 |
| ACGGCCTGGG | 1.03 ± 0.03 |
| ACGGCGAGGG | 1.02 ± 0.039 |
| ACGGCTTAGG | 1.03 ± 0.034 |
| ACGGGACGGC | 1.04 ± 0.14 |
| ACGGGACTAG | 1.02 ± 0.099 |
| ACGGGAGGGG | 1.04 ± 0.048 |
| ACGGGATG | 1.039 ± 0.0044 |
| ACGGGATGGG | 1.062 ± 0.01 |
